FireProtDB (doi:10.1021/bi047926u)
Several values for one entry are separate records, joined by “and”; a condition that tells them apart may be missing. Identical values can stand only once.

Conditions: Bacillus subtilis (strain 168); pH 7.2; Thermal; CD; TES-KOH 21 mM; KCl 4 mM; reversible: No; whole UniProt chain shown

B1: Manganese-dependent inorganic pyrophosphatase wild type, P37487 (protein)
chain: MEKILIFGHQNPDTDTICSAIAYADLKNKLGFNAEPVRLGQVNGETQYALDYFKQESPRLVETAANEVNGVILVDHNERQQSIKDIEEVQVLEVIDHHRIANFETAEPLYYRAEPVGCTATILNKMYKENNVKIEKEIAGLMLSAIISDSLLFKSPTCTDQDVAAAKELAEIAGVDAEEYGLNMLKAGADLSKKTVEELISLDAKEFTLGSKKVEIAQVNTVDIEDVKKRQAELEAVISKVVAEKNLDLFLLVITDILENDSLALAIGNEAAKVEKAFNVTLENNTALLKGVVSRKKQVVPVLTDAMAE
Tm: 50 °C and 46 °C
